According to publication PMC4442108, “Preclinical Validation of the Heparin-Reactive Peptide p5+14 as a Molecular Imaging Agent for Visceral Amyloidosis” (Molecules, 2015):
Where no end group is shown, it is not given here. The star is where a group is joined. 125I = [125I]*

Assays:
[1] = Dynamic PET/CT pharmacokinetics of 124I-p5+14 in WT mice; type: in vivo, mouse (WT); details: post injection
Protocol: Dynamic PET imaging required radioiodination of the peptide with positron emitter, Iodine-124 (^124I; IBA Molecular, Sterling, WV, USA). Peptide p5+14 was radiolabeled using the Iodogen (Piercechemical, Rockford, IL, USA) oxidation method, as described. Briefly, 10 µL of 0.5 M NaPO4 buffer pH 7.6 was added to a 1.5 mL microcentrifuge tube followed by addition of ~50 µL of ^124I (~2 mCi). One µL of 2 mg/mL fresh ascorbic acid solution in phosphate buffered saline (PBS) was added to ensure complete reduction of ^124I-iodine. Approximately 25 µL (~50 µg) of peptide dissolved in distilled H2O was mixed with ~75 µL of PBS and added to the reaction mixture. Seven µL of 1 mg/mL Iodogen dissolved in acetonitrile was added to initiate the reaction. After 2 min, the reaction was quenched by addition of 50 µL of 2 mg/mL ascorbic acid. Twenty µL of blue dextran and 50 µL of filtered (0.2 µm pore sized) 0.1% gelatin in PBS were added to the reaction mixture. Radiolabeled product was separated from free ^124I by size exclusion chromatography as described above. Fractions were manually collected as the blue dextran marker reached the base of the column and the radioactivity in each measured using a dose calibrator (Capintec, Model 15, Ramsey, NJ, USA) set for ^124I detection. Peak fractions were pooled for use in the study, and radiopurity was assessed as described above. […]

[2] = Solution stability (stated, unpublished data); type: physicochemical; details: Wall and Kennel
[3] = molecular target: synthetic amyloid fibrils of recombinant human λ6 light chain variable domain of patient Wil (rVλ6Wil) (human); assay: co-sedimentation; ex vivo amyloid binding assay: 25 µL of 1 mg/mL synthetic rVλ6Wil fibrils resuspended in 200 µL PBS with 0.05% Tween-20, ~5 ng 125I-p5+14 added, rotated at RT for 1 h, centrifuged twice at 15,000 x g; % of counts in the pellet
[4] = molecular target: synthetic amyloid fibrils of recombinant human λ6 light chain variable domain of patient Wil (rVλ6Wil) (human); assay: co-sedimentation; peptide binding assay with rVλ6Wil fibrils in suspension in 10 mM phosphate buffer (pH 7.6) containing 0.15 (PBS), 0.25, 0.5, 1.0 or 2.0 M NaCl; bound peptide as % total counts added; n = 2
[5] = molecular target: synthetic amyloid fibrils of recombinant human λ6 light chain variable domain of patient Wil (rVλ6Wil) (human); assay: ELISA; EuLISA: rVλ6Wil fibrils coated and dried on NUNC Maxisorb wells (8 µg/mL, 50 µL, overnight 37 °C), blocked with 1% BSA; biotinylated p5+14 1 x 10^-10 to 1 x 10^-6 M, 1 h at 37 °C, PBS with 0.05% Tween 20; europium/streptavidin detection; n = 3

In the case of “GGGYSKAQKAQAKQAKQAQKAQKAQAKQAKQAQKAQKAQAKQAKQ [p5+14]”, the “time to clearance from healthy organs” value [1] is reported as no more than 2 h and the “solution stability relative to p5” value [2] is reported as “greater solution stability”.

For GGGY(125I)SKAQKAQAKQAKQAQKAQKAQAKQAKQAQKAQKAQAKQAKQ [125I-p5+14 (radioiodinated peptide p5+14)], the % bound [3] was 95.7%, the % bound at 2 M NaCl [4] was 20% and the % bound at the lowest NaCl concentration (0.15 M) [4] was 95%. The NaCl concentration at half-maximal loss of binding (printed as EC50) [4] was 1 M.

C(maleimide‑biotin)GGGYSKAQKAQAKQAKQAQKAQKAQAKQAKQAQKAQKAQAKQAKQ [biotinylated p5+14 (with a cysteine residue at the N-terminal)] showed an EC50 [5] of 15 nM.
